Measured values reported in US20140087995A1 (published 2014).
Numbered stars: 1 amine (or outer) side, 2 acyl side, 3 side chain; on linkers, the order of the positions; unused ones are H or OH. Bridge positions count the residues as written; N and C are the ends. Side chains are listed from the residue outwards. Ends that are not written are not given here. * marks the point of attachment. C20 diacid = O=C(O)CCCCCCCCCCCCCCCCCCC(=O)*; γGlu = O=C(O)[C@H](CCC(=O)[*:2])N[*:1]; AEEA = NCCOCCOCC(=O)O

T1: human calcitonin receptor (human, UniProt P30988 25-474)
T1 sequence (looked up): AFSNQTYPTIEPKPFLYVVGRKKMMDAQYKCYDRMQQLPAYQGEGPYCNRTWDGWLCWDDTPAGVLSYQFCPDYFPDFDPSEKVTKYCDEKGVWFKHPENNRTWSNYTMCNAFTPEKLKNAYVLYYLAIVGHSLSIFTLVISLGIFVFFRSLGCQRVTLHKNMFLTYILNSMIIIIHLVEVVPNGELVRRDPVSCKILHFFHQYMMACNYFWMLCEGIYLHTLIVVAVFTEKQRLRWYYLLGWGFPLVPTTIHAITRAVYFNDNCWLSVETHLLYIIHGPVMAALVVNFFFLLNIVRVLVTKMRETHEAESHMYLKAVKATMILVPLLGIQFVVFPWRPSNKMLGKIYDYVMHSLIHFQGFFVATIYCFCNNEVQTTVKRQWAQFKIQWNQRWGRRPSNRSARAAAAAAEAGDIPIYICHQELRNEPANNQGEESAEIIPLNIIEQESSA


target: T1, human calcitonin receptor; experiment: cell-based or functional assay

| Binder | hCTR funct. EC50 [nM] |
| --- | --- |
| K([AEEA-γGlu-C20 diacid])CNTATCATQRLASFLRHSSPNFGAIPSSTPVGSNTY-NH2 (disulfide 2-7; N-terminus assumed; SMILES CC[C@H](C)[C@H](NC(=O)[C@H](C)NC(=O)CNC(=O)[C@H](Cc1ccccc1)NC(=O)[C@H](CC(N)=O)NC(=O)[C@@H]1CCCN1C(=O)[C@H](CO)NC(=O)[C@H](CO)NC(=O)[C@H](Cc1c[nH]cn1)NC(=O)[C@H](CCCNC(=N)N)NC(=O)[C@H](CC(C)C)NC(=O)[C@H](Cc1ccccc1)NC(=O)[C@H](CO)NC(=O)[C@H](C)NC(=O)[C@H](CC(C)C)NC(=O)[C@H](CCCNC(=N)N)NC(=O)[C@H](CCC(N)=O)NC(=O)[C@@H](NC(=O)[C@H](C)NC(=O)[C@@H]1CSSC[C@H](NC(=O)[C@@H](N)CCCCNC(=O)COCCOCCNC(=O)CC[C@H](NC(=O)CCCCCCCCCCCCCCCCCCC(=O)O)C(=O)O)C(=O)N[C@@H](CC(N)=O)C(=O)N[C@@H]([C@@H](C)O)C(=O)N[C@@H](C)C(=O)N[C@@H]([C@@H](C)O)C(=O)N1)[C@@H](C)O)C(=O)N1CCC[C@H]1C(=O)N[C@@H](CO)C(=O)N[C@@H](CO)C(=O)N[C@H](C(=O)N1CCC[C@H]1C(=O)N[C@H](C(=O)NCC(=O)N[C@@H](CO)C(=O)N[C@@H](CC(N)=O)C(=O)N[C@H](C(=O)N[C@@H](Cc1ccc(O)cc1)C(N)=O)[C@@H](C)O)C(C)C)[C@@H](C)O, also called compound 73) | 0.961 |
| K([AEEA-γGlu-C20 diacid])CNTATCATQRLATFLRHSSPNFGAIPSSTPVGSNTY-NH2 (disulfide 2-7; N-terminus assumed; SMILES CC[C@H](C)[C@H](NC(=O)[C@H](C)NC(=O)CNC(=O)[C@H](Cc1ccccc1)NC(=O)[C@H](CC(N)=O)NC(=O)[C@@H]1CCCN1C(=O)[C@H](CO)NC(=O)[C@H](CO)NC(=O)[C@H](Cc1c[nH]cn1)NC(=O)[C@H](CCCNC(=N)N)NC(=O)[C@H](CC(C)C)NC(=O)[C@H](Cc1ccccc1)NC(=O)[C@@H](NC(=O)[C@H](C)NC(=O)[C@H](CC(C)C)NC(=O)[C@H](CCCNC(=N)N)NC(=O)[C@H](CCC(N)=O)NC(=O)[C@@H](NC(=O)[C@H](C)NC(=O)[C@@H]1CSSC[C@H](NC(=O)[C@@H](N)CCCCNC(=O)COCCOCCNC(=O)CC[C@H](NC(=O)CCCCCCCCCCCCCCCCCCC(=O)O)C(=O)O)C(=O)N[C@@H](CC(N)=O)C(=O)N[C@@H]([C@@H](C)O)C(=O)N[C@@H](C)C(=O)N[C@@H]([C@@H](C)O)C(=O)N1)[C@@H](C)O)[C@@H](C)O)C(=O)N1CCC[C@H]1C(=O)N[C@@H](CO)C(=O)N[C@@H](CO)C(=O)N[C@H](C(=O)N1CCC[C@H]1C(=O)N[C@H](C(=O)NCC(=O)N[C@@H](CO)C(=O)N[C@@H](CC(N)=O)C(=O)N[C@H](C(=O)N[C@@H](Cc1ccc(O)cc1)C(N)=O)[C@@H](C)O)C(C)C)[C@@H](C)O, also called compound 75) | 9.07 |
| K([γGlu-C20 diacid])CNTATCATQRLARFLRHSSPNFGAIPSSTNVGSNTY-NH2 (disulfide 2-7; N-terminus assumed; SMILES CC[C@H](C)[C@H](NC(=O)[C@H](C)NC(=O)CNC(=O)[C@H](Cc1ccccc1)NC(=O)[C@H](CC(N)=O)NC(=O)[C@@H]1CCCN1C(=O)[C@H](CO)NC(=O)[C@H](CO)NC(=O)[C@H](Cc1c[nH]cn1)NC(=O)[C@H](CCCNC(=N)N)NC(=O)[C@H](CC(C)C)NC(=O)[C@H](Cc1ccccc1)NC(=O)[C@H](CCCNC(=N)N)NC(=O)[C@H](C)NC(=O)[C@H](CC(C)C)NC(=O)[C@H](CCCNC(=N)N)NC(=O)[C@H](CCC(N)=O)NC(=O)[C@@H](NC(=O)[C@H](C)NC(=O)[C@@H]1CSSC[C@H](NC(=O)[C@@H](N)CCCCNC(=O)CC[C@H](NC(=O)CCCCCCCCCCCCCCCCCCC(=O)O)C(=O)O)C(=O)N[C@@H](CC(N)=O)C(=O)N[C@@H]([C@@H](C)O)C(=O)N[C@@H](C)C(=O)N[C@@H]([C@@H](C)O)C(=O)N1)[C@@H](C)O)C(=O)N1CCC[C@H]1C(=O)N[C@@H](CO)C(=O)N[C@@H](CO)C(=O)N[C@H](C(=O)N[C@@H](CC(N)=O)C(=O)N[C@H](C(=O)NCC(=O)N[C@@H](CO)C(=O)N[C@@H](CC(N)=O)C(=O)N[C@H](C(=O)N[C@@H](Cc1ccc(O)cc1)C(N)=O)[C@@H](C)O)C(C)C)[C@@H](C)O, also called compound 83) [N^ε1-[(4S)-4-carboxy-4-(19-carboxynonadecanoylamino)butanoyl]-[Arg14,Arg17,Pro21,Pro27]-h-amylin] | 16.8 |
| K([γGlu-C20 diacid])CNTATCATQRLARFLRHSSPNFGAIPSSTNVGPNTY-NH2 (disulfide 2-7; N-terminus assumed; SMILES CC[C@H](C)[C@H](NC(=O)[C@H](C)NC(=O)CNC(=O)[C@H](Cc1ccccc1)NC(=O)[C@H](CC(N)=O)NC(=O)[C@@H]1CCCN1C(=O)[C@H](CO)NC(=O)[C@H](CO)NC(=O)[C@H](Cc1c[nH]cn1)NC(=O)[C@H](CCCNC(=N)N)NC(=O)[C@H](CC(C)C)NC(=O)[C@H](Cc1ccccc1)NC(=O)[C@H](CCCNC(=N)N)NC(=O)[C@H](C)NC(=O)[C@H](CC(C)C)NC(=O)[C@H](CCCNC(=N)N)NC(=O)[C@H](CCC(N)=O)NC(=O)[C@@H](NC(=O)[C@H](C)NC(=O)[C@@H]1CSSC[C@H](NC(=O)[C@@H](N)CCCCNC(=O)CC[C@H](NC(=O)CCCCCCCCCCCCCCCCCCC(=O)O)C(=O)O)C(=O)N[C@@H](CC(N)=O)C(=O)N[C@@H]([C@@H](C)O)C(=O)N[C@@H](C)C(=O)N[C@@H]([C@@H](C)O)C(=O)N1)[C@@H](C)O)C(=O)N1CCC[C@H]1C(=O)N[C@@H](CO)C(=O)N[C@@H](CO)C(=O)N[C@H](C(=O)N[C@@H](CC(N)=O)C(=O)N[C@H](C(=O)NCC(=O)N1CCC[C@H]1C(=O)N[C@@H](CC(N)=O)C(=O)N[C@H](C(=O)N[C@@H](Cc1ccc(O)cc1)C(N)=O)[C@@H](C)O)C(C)C)[C@@H](C)O, also called compound 65) | 9.33 |
| K([γGlu-C20 diacid])CNTATCATQRLARFLRHSSPNFGAIPSSTPVGSNTY-NH2 (disulfide 2-7; N-terminus assumed; SMILES CC[C@H](C)[C@H](NC(=O)[C@H](C)NC(=O)CNC(=O)[C@H](Cc1ccccc1)NC(=O)[C@H](CC(N)=O)NC(=O)[C@@H]1CCCN1C(=O)[C@H](CO)NC(=O)[C@H](CO)NC(=O)[C@H](Cc1c[nH]cn1)NC(=O)[C@H](CCCNC(=N)N)NC(=O)[C@H](CC(C)C)NC(=O)[C@H](Cc1ccccc1)NC(=O)[C@H](CCCNC(=N)N)NC(=O)[C@H](C)NC(=O)[C@H](CC(C)C)NC(=O)[C@H](CCCNC(=N)N)NC(=O)[C@H](CCC(N)=O)NC(=O)[C@@H](NC(=O)[C@H](C)NC(=O)[C@@H]1CSSC[C@H](NC(=O)[C@@H](N)CCCCNC(=O)CC[C@H](NC(=O)CCCCCCCCCCCCCCCCCCC(=O)O)C(=O)O)C(=O)N[C@@H](CC(N)=O)C(=O)N[C@@H]([C@@H](C)O)C(=O)N[C@@H](C)C(=O)N[C@@H]([C@@H](C)O)C(=O)N1)[C@@H](C)O)C(=O)N1CCC[C@H]1C(=O)N[C@@H](CO)C(=O)N[C@@H](CO)C(=O)N[C@H](C(=O)N1CCC[C@H]1C(=O)N[C@H](C(=O)NCC(=O)N[C@@H](CO)C(=O)N[C@@H](CC(N)=O)C(=O)N[C@H](C(=O)N[C@@H](Cc1ccc(O)cc1)C(N)=O)[C@@H](C)O)C(C)C)[C@@H](C)O, also called compound 63) | 5.13 |
| K([γGlu-C20 diacid])CNTATCATQRLAAFLRHSSPNFGAIPSSTNVGHNTY-NH2 (disulfide 2-7; N-terminus assumed; SMILES CC[C@H](C)[C@H](NC(=O)[C@H](C)NC(=O)CNC(=O)[C@H](Cc1ccccc1)NC(=O)[C@H](CC(N)=O)NC(=O)[C@@H]1CCCN1C(=O)[C@H](CO)NC(=O)[C@H](CO)NC(=O)[C@H](Cc1c[nH]cn1)NC(=O)[C@H](CCCNC(=N)N)NC(=O)[C@H](CC(C)C)NC(=O)[C@H](Cc1ccccc1)NC(=O)[C@H](C)NC(=O)[C@H](C)NC(=O)[C@H](CC(C)C)NC(=O)[C@H](CCCNC(=N)N)NC(=O)[C@H](CCC(N)=O)NC(=O)[C@@H](NC(=O)[C@H](C)NC(=O)[C@@H]1CSSC[C@H](NC(=O)[C@@H](N)CCCCNC(=O)CC[C@H](NC(=O)CCCCCCCCCCCCCCCCCCC(=O)O)C(=O)O)C(=O)N[C@@H](CC(N)=O)C(=O)N[C@@H]([C@@H](C)O)C(=O)N[C@@H](C)C(=O)N[C@@H]([C@@H](C)O)C(=O)N1)[C@@H](C)O)C(=O)N1CCC[C@H]1C(=O)N[C@@H](CO)C(=O)N[C@@H](CO)C(=O)N[C@H](C(=O)N[C@@H](CC(N)=O)C(=O)N[C@H](C(=O)NCC(=O)N[C@@H](Cc1c[nH]cn1)C(=O)N[C@@H](CC(N)=O)C(=O)N[C@H](C(=O)N[C@@H](Cc1ccc(O)cc1)C(N)=O)[C@@H](C)O)C(C)C)[C@@H](C)O, also called compound 93) | 1.15 |
